Assay results taken from IntAct's records for PubMed 30564455.

What follows are substances tested against ddb1_human DDB1 (UniProt Q16531).
Sequence of ddb1_human DDB1 (Q16531 whole entry): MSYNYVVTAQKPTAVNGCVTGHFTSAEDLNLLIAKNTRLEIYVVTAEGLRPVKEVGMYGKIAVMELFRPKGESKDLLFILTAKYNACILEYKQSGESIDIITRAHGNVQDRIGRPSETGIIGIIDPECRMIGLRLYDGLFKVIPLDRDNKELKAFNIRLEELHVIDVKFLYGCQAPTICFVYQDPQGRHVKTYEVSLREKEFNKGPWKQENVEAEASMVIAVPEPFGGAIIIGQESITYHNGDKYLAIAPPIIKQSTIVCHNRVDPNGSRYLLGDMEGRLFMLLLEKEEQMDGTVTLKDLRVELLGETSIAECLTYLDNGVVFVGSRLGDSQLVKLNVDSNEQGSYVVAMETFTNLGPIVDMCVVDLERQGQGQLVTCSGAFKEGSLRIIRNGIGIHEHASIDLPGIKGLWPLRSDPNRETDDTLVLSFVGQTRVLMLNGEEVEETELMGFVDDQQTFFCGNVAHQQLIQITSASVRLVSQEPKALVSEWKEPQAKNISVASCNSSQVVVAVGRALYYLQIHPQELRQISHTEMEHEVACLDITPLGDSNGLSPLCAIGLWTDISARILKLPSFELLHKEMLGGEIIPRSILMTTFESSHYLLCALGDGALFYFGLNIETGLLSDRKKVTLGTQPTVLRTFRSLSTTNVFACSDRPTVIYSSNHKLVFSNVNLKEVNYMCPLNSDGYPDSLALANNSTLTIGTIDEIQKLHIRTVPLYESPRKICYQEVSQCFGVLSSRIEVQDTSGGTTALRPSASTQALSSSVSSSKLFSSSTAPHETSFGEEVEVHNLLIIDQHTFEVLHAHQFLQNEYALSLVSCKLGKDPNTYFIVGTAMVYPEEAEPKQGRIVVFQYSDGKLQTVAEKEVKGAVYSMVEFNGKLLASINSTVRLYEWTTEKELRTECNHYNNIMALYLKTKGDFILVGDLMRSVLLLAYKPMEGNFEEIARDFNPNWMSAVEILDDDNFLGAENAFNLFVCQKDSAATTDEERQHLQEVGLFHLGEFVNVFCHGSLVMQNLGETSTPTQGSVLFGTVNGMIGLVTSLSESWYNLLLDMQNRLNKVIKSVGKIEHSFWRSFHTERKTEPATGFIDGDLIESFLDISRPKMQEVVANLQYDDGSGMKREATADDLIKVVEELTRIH

Effect of a mutation on the interaction, disrupting interaction strength:
DET1- and DDB1-associated protein 1 (Homo sapiens) (from UniProt Q9BW61) P9D
DET1- and DDB1-associated protein 1 (Homo sapiens) (from UniProt Q9BW61) H20D
DET1- and DDB1-associated protein 1 (Homo sapiens) (from UniProt Q9BW61) N15D
DET1- and DDB1-associated protein 1 (Homo sapiens) (from UniProt Q9BW61) F16D
